Measured values as given in patent US20250090676A1 (SUTRO BIOPHARMA, published 2025).

B1: SRP1848-A02 (antibody, V domains shown)
VH: EVQLVESGGGLVQPGGSLRLSCAASGFNISGFRIHWVRQAPGKGLEWVAGIYPESGATYYADSVKGRFTISADTSKNTAYLQMNSLRAEDTAVYYCARHLYVWDWVLDHVLDYWGQGTLVTVSS
VL: not shown
notes: IgG with common trastuzumab LC, cell-free expressed, HIS- and FLAG-tagged; also called Antibody 2
B2: SRP1848-F04 (antibody, V domains shown)
VH: EVQLVESGGGLVQPGGSLRLSCAASGFNISNYSIHWVRQAPGKGLEWVGEIYPIDGITDYADSVKGRFTISADTSKNTAYLQMNSLRAEDTAVYYCARGSWFWRSGYGYYLDYWGQGTLVTVSS
VL: not shown
notes: IgG with common trastuzumab LC, cell-free expressed, HIS- and FLAG-tagged; also called Antibody 39
B3: SRP1848-A04 (antibody, V domains shown)
VH: EVQLVESGGGLVQPGGSLRLSCAASGFNIDQSSIHWVRQAPGKGLEWVGVIYPVDGTTDYADSVKGRFTISADTSKNTAYLQMNSLRAEDTAVYYCARGAWSWRSGYGYYIDYWGQGTLVTVSS
VL: not shown
notes: IgG with common trastuzumab LC, cell-free expressed, HIS- and FLAG-tagged; also called Antibody 3
B4: SRP1848-B05 (antibody, V domains shown)
VH: EVQLVESGGGLVQPGGSLRLSCAASGFNISNYYIHWVRQAPGKGLEWVGGISPIDGYTDYADSMKGRFTISADTSKNTAYLQMSSLRAEDTAVYYCARGSWFWQSGYGYYLDYWGQGTLVTVSS
VL: not shown
notes: IgG with common trastuzumab LC, cell-free expressed, HIS- and FLAG-tagged; also called Antibody 12
B5: SRP1848-B09 (antibody, V domains shown)
VH: EVQLVESGGGLVQPGGSLRLSCAAGGFNITNYYIHWVRQAPGKGLEWVGGITPVDGYTDYADRVKGRFTISADTSKNTAYLQMNSLRAEDTAVYYCARGAWSWRSGYGYYMDYWGQGTLVTVSS
VL: not shown
notes: IgG with common trastuzumab LC, cell-free expressed, HIS- and FLAG-tagged; also called Antibody 15
B6: SRP1848-B10 (antibody, V domains shown)
VH: EVQLVESGGGLVQPGGSLRLSCAASGFNTTTKSIHWVRQAPGKGLEWVGEIYPRDGITDYADSVKGRFTISADTSKNTAYLQMNSLRAEDTAVYYCARGGWHWRSGYSYYLDYWGQGTLVTVSS
VL: not shown
notes: IgG with common trastuzumab LC, cell-free expressed, HIS- and FLAG-tagged; also called Antibody 16
B7: SRP1848-B03 (antibody, V domains shown)
VH: EVQLVESGGGLVQPGGSLRLSCAASGFNISMKYIHWVRQAPGKGLEWVGGITPIDGMTDYADSVKGRFTISADTSKNTAYLQMNSLRAEDTAVYYCARGSWSWPSGYSYYLDYWGQGTLVTVSS
VL: not shown
notes: IgG with common trastuzumab LC, cell-free expressed, HIS- and FLAG-tagged; also called Antibody 10
B8: SRP1848-B11 (antibody, V domains shown)
VH: EVQLVESGGGLVQPGGSLRLSCAASGFNIGNNSIHWVRQAPGKGLEWVGDISPIDGFTDYADSVKGRFTISADTSKNTAYLQMNSLRAEDTAVYYCARGSWSWRAGYGYYLDYWGQGTLVTVSS
VL: not shown
notes: IgG with common trastuzumab LC, cell-free expressed, HIS- and FLAG-tagged; also called Antibody 17
B9: SRP1848-B07 (antibody, V domains shown)
VH: EVQLVESGGGLVQPGGSLRLSCAASGFNISRFYIHWVRQAPGKGLEWVGGISPYDGFTDYADSVKGRFTISADTSKNTAYLQMNSLRAEDTAVYYCARGSWSWPAGYGYYQDYWGQGTLVTVSS
VL: not shown
notes: IgG with common trastuzumab LC, cell-free expressed, HIS- and FLAG-tagged; also called Antibody 14
B10: SRP1848-C04 (antibody, V domains shown)
VH: EVQLVESGGGLVQPGGSLRLSCAASGFNIRHYSIHWVRQAPGKGLEWVGEIYPGPGNTDYADSVKGRFTISADTSKNTAYLQMNSLRAEDTAVYYCARGSLSWRAGYGYYLDYWGQGTLVTVSS
VL: not shown
notes: IgG with common trastuzumab LC, cell-free expressed, HIS- and FLAG-tagged; also called Antibody 20
B11: SRP1848-A07 (antibody, V domains shown)
VH: EVQLVESGGGLVQPGGSLRLSCAASGFNIGYHSIHWVRQAPGKGLEWVGEIFPVDGTTDYADSVKGRFTISADTSKNTAYLHMNSLRAEDTAVYYCARGFWAWRSGYGYYLDYWGQGTLVTVSS
VL: not shown
notes: IgG with common trastuzumab LC, cell-free expressed, HIS- and FLAG-tagged; also called Antibody 5
B12: SRP1848-C01 (antibody, V domains shown)
VH: EVQLVESGGGLVQPGGSLRLSCAASGFNIGNSYIHWVRQAPGKGLEWVGGVTPNDGYTDYADSVKGRFTISADTSKNTTYLQMNSLRAEDTAVYYCARGSWFWRAGYGYYLDYWGQGALVTVSS
VL: not shown
notes: IgG with common trastuzumab LC, cell-free expressed, HIS- and FLAG-tagged; also called Antibody 18
B13: SRP1848-A06 (antibody, V domains shown)
VH: EVQLVESGGGLVQPGGSLRLSCAASGFNIGNSYIHWVRQAPGKGLEWVGGITPIDGNTDYADSVKGRFTISADTSKNTAYLQMNSLRAEDTAVYYCARGAWSWRSGYGYYIDYWGQGTLVTVSS
VL: not shown
notes: IgG with common trastuzumab LC, cell-free expressed, HIS- and FLAG-tagged; also called Antibody 4
B14: SRP1848-B01 (antibody, V domains shown)
VH: EVQLVESGGGLVQPGGSLRLSCAASGFNIRNYSIHWVRQAPGKGLEWVGEIYPVDGITDYADSVKGRFTISADTSKNTAYLQMNSLRAEDTAVYYCARGFWSWPSGYSYFLDYWGQGTLVTVSS
VL: not shown
notes: IgG with common trastuzumab LC, cell-free expressed, HIS- and FLAG-tagged; also called Antibody 9
B15: SRP1848-A08 (antibody, V domains shown)
VH: EVQLVESGGGLVQPGGSLRLSCAASGSNIRKHSIHWVRQAPGKGLEWVGSIYPNDGTTDYADSVKGRFTISADTSKNTAYLQMNSLRAEDTAVYYCARGSWFWRAGYGYYLDYWGQGTLVTVSS
VL: not shown
notes: IgG with common trastuzumab LC, cell-free expressed, HIS- and FLAG-tagged; also called Antibody 6
B16: SRP1848-A09 (antibody, V domains shown)
VH: EVQLVESGGGLVQPGGSLRLSCAASGFNIRKQSIHWVRQAPGKGLEWVGSIFPNDGTTDYADSVKGRFTISADTSKNTAYLQVNSLRAEDTAVYYCARGSWFWRSGYGYFLEYWGQGTLVTVSS
VL: not shown
notes: IgG with common trastuzumab LC, cell-free expressed, HIS- and FLAG-tagged; also called Antibody 7
B17: SRP1848-A10 (antibody, V domains shown)
VH: EVQLVESGGGLVQPGGSLRLSCAASGFNIRKYSIHWARQAPGKGLEWVGDIFPIDDITDYADSVKGRFTISADTSKNTAYLQMNSLRAEDTAVYYCARGSWSWPSGHSYYLDYWGQGTLVTVSS
VL: not shown
notes: IgG with common trastuzumab LC, cell-free expressed, HIS- and FLAG-tagged; also called Antibody 8
B18: SRP1848-C03 (antibody, V domains shown)
VH: EVQLVESGGGLVQPGGSLRLSCAASGFNIGVYSIHWVRQAPGKGLEWVGEIYPIDGNTDYADSVKGRFTISADTSKNTAYLQMNSLRAEDTAVYYCARGSWAWRSGYSYYLDYWGQGTLVTVSS
VL: not shown
notes: IgG with common trastuzumab LC, cell-free expressed, HIS- and FLAG-tagged; also called Antibody 19
B19: SRP1848-B06 (antibody, V domains shown)
VH: EVQLVESGGGLVQPGGSLRLSCAASGFNISNYYIHWVRQAPGKGLEWVGGITPIDGYTDYADSVKGRFTISADTSKNTAYLQMNSLRAEDTAVYYCARGFWSWPSGYGYYQDYWGQGTLVTVSS
VL: not shown
notes: IgG with common trastuzumab LC, cell-free expressed, HIS- and FLAG-tagged; also called Antibody 13
B20: SRP1848-B04 (antibody, V domains shown)
VH: EVQLVESGGGLVQPGGSLRLSCAASSFNISNHSIHWVRQAPGKGLEWVGEIYPVDGITDYADSVKGRFTISADTSKNTAYLQMNSLRAEDTAVYYCARGRYSWRAGYSYYLDYWGQGTLVTVSS
VL: not shown
notes: IgG with common trastuzumab LC, cell-free expressed, HIS- and FLAG-tagged; also called Antibody 11
B21: SRP1848-A01 (antibody, V domains shown)
VH: EVQLVESGGGLVQPGGSLRLSCAASGFNITRYSIHWVRQAPGKGLEWVAGILPESGGTSYADSVKGRFTISADTSKNTAYLQMNSLRAEDTAVYYCARHIYPWDWFSNYVLDYWGQGTLVTVSS
VL: not shown
notes: IgG with common trastuzumab LC, cell-free expressed, HIS- and FLAG-tagged; also called Antibody 1

The binders below were run against T1, human FOLR1-HIS (human, UniProt P15328 25-233) (assay: SPR (Biacore), antibody captured on anti-Fc, human FOLR1-HIS analyte, 25 C).
T1 construct: Analyte of the Biacore assay; also called FolRα-ECD; extracellular domain of FOLR1; not shown: HIS tag
T1 sequence (P15328 25-233 limits assumed): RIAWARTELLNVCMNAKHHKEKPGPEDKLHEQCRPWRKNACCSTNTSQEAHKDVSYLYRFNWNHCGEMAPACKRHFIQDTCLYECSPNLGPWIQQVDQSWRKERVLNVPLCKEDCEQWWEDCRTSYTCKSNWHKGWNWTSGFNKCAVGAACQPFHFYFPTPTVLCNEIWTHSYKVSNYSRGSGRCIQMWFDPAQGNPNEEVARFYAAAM

Compared with B1, B2 is 13-fold lower in Kd: 16.8 nM for the first, 1.32 nM for the second.

Going from B3 to B4, the Kd rises from 2.03 nM to 9.07 nM (4.5-fold).

Compared with B5, B6 is 2-fold lower in Kd: 4.26 nM for the first, 2.18 nM for the second. The second binds more tightly here.

First: B7
Second: B8
The Kd of the first is 5-fold higher: 7.63 nM for the first, 1.52 nM for the second.

B9 and B10 are within 1.5-fold of each other in Kd: 5.35 nM for the first, 3.86 nM for the second.

Going from B11 to B12, the Kd rises from 0.855 nM to 3.05 nM (3.6-fold).

B13 and B14 are within 1.5-fold of each other in Kd: 3.51 nM for the first, 3.67 nM for the second.

B15 and B16 are within 1.5-fold of each other in Kd: 2.42 nM for the first, 1.82 nM for the second.

First: B17
Second: B18
The Kd of the first is 2.5-fold higher: 2.74 nM for the first, 1.11 nM for the second. The second binds more tightly here.

Going from B19 to B20, the Kd falls from 5.1 nM to 1.5 nM (3.4-fold).

B21 was tested, and the Kd was 1.87 nM.

Compared with B1, B2 is 8.2-fold lower in koff: 0.00882 s⁻¹ for the first, 0.00108 s⁻¹ for the second.

First: B3
Second: B4
The koff of the first is 2.7-fold lower: 0.00326 s⁻¹ for the first, 0.00885 s⁻¹ for the second.

B5 and B7 are within 1.5-fold of each other in koff: 0.00661 s⁻¹ for the first, 0.00859 s⁻¹ for the second.

Going from B8 to B9, the koff rises from 0.00186 s⁻¹ to 0.00378 s⁻¹ (2-fold).

First: B10
Second: B11
The koff of the first is 5.8-fold higher: 0.00499 s⁻¹ for the first, 0.000866 s⁻¹ for the second.

First: B14
Second: B15
The koff of the first is 3.5-fold higher: 0.00416 s⁻¹ for the first, 0.00119 s⁻¹ for the second.

First: B17
Second: B18
The koff of the first is 2.2-fold higher: 0.0033 s⁻¹ for the first, 0.00152 s⁻¹ for the second.

Going from B19 to B20, the koff falls from 0.00317 s⁻¹ to 0.00117 s⁻¹ (2.7-fold).

In the case of B21, the koff is reported as 0.00155 s⁻¹.

First: B1
Second: B2
The kon of the first is 1.6-fold lower: 525000 M⁻¹ s⁻¹ for the first, 815000 M⁻¹ s⁻¹ for the second.

First: B3
Second: B4
The kon of the first is 1.6-fold higher: 1.61e+06 M⁻¹ s⁻¹ for the first, 976000 M⁻¹ s⁻¹ for the second.

B5 and B7 are within 1.5-fold of each other in kon: 1.55e+06 M⁻¹ s⁻¹ for the first, 1.13e+06 M⁻¹ s⁻¹ for the second.

Going from B8 to B9, the kon falls from 1.22e+06 M⁻¹ s⁻¹ to 706000 M⁻¹ s⁻¹ (1.7-fold).

B10 and B11 are within 1.5-fold of each other in kon: 1.29e+06 M⁻¹ s⁻¹ for the first, 1.01e+06 M⁻¹ s⁻¹ for the second.

Compared with B14, B15 is 2.3-fold lower in kon: 1.13e+06 M⁻¹ s⁻¹ for the first, 493000 M⁻¹ s⁻¹ for the second.

B17 and B18 are within 1.5-fold of each other in kon: 1.2e+06 M⁻¹ s⁻¹ for the first, 1.36e+06 M⁻¹ s⁻¹ for the second.

B19 and B20 are within 1.5-fold of each other in kon: 620000 M⁻¹ s⁻¹ for the first, 780000 M⁻¹ s⁻¹ for the second.

B21 was tested, and the kon was 829000 M⁻¹ s⁻¹.
